Measured values: patent US20110300138A1 (published 2011)

What was measured:
TSHR260-AP (human) [1] = assay: TSHR260-AP bridge ELISA (full length TSHR on wells, TSHR260-AP in solution); IgG 0.05 µg/mL diluted in assay buffer
TSHR260-AP (human) [2] = assay: TSHR260-AP bridge ELISA (full length TSHR on wells, TSHR260-AP in solution); IgG 1 µg/mL diluted in assay buffer
[3] = biological target: TSHR260-alkaline phosphatase (TSHR260-AP) (human) (UniProt P05187); assay: TSHR260-AP bridge ELISA, full length TSHR on wells; 250 µg/mL, diluted in assay buffer
TSHR260-AP (human) [4] = assay: TSHR260-AP bridge ELISA (full length TSHR on wells, TSHR260-AP in solution); IgG 100 µg/mL diluted in HBD serum
[5] = biological target: TSHR260-alkaline phosphatase (TSHR260-AP) (human) (UniProt P05187); assay: TSHR260-AP bridge ELISA, full length TSHR on wells; 0.1 µg/mL, diluted in HBD
[6] = biological target: human TSHR expressed in CHO cells (human) (UniProt P16473); assay: cell-based or functional assay
[7] = biological target: human TSH receptor (full length, wild type) expressed in CHO cells (human) (UniProt P16473); assay: cell-based or functional assay
[8] = biological target: human TSH receptor (full length, wild type) expressed on CHO cells (human) (UniProt P16473); assay: cell-based or functional assay
[9] = biological target: human TSH receptor (wild type), expressed on transfected CHO cells (human) (UniProt P16473); assay: cell-based or functional assay

Mean absorbance at 405 nm (absorbance at 405 nm) (TSHR260-AP (human) [1]): -0.008
Mean absorbance at 405 nm (absorbance at 405 nm) (TSHR260-AP (human) [2]): 0.011
Mean absorbance at 405 nm (absorbance at 405 nm) [3]: 1.12
Mean absorbance at 405 nm (absorbance at 405 nm) (TSHR260-AP (human) [4]): 0.027
Mean absorbance at 405 nm (absorbance at 405 nm) [5]: -0.005
% Inhibition; 5C9 IgG 0.003 µg/mL + 3 ng/mL pTSH [6]: 10.4%
% Inhibition; 5C9 IgG 0.0075 µg/mL + 3 ng/mL pTSH [6]: 76.5%
% Inhibition; 5C9 IgG 0.01 µg/mL + 3 ng/mL pTSH [6]: 1%
% Inhibition; 5C9 IgG 0.025 µg/mL + 3 ng/mL pTSH [6]: 26%
% Inhibition; 5C9 IgG 0.05 µg/mL + 3 ng/mL pTSH [6]: 62.8%
% Inhibition; 5C9 IgG 0.1 µg/mL + 3 ng/mL pTSH [6]: 81.8%
% Inhibition; 5C9 IgG 0.3 µg/mL + 3 ng/mL pTSH [6]: 87.5%
% Inhibition; 5C9 IgG 1 µg/mL + 3 ng/mL pTSH [6]: 92.3%
% Inhibition; 5C9 IgG 3 µg/mL + 3 ng/mL pTSH [6]: 92.8%
% Inhibition; T1 serum + 100 µg/mL 5C9 IgG [7]: 98.7%
% Inhibition; T2 serum + 100 µg/mL 5C9 IgG [7]: 98.2%
% Inhibition; T3 serum + 100 µg/mL 5C9 IgG [7]: 97.8%
Cyclic AMP concentration; 100 µg/mL 5C9 IgG alone [7]: 1 pmol/mL
Cyclic AMP concentration; HBD + 100 µg/mL 5C9 IgG [7]: 0.9 pmol/mL
Cyclic AMP concentration; T1 serum + 100 µg/mL 5C9 IgG [7]: 1.3 pmol/mL
Cyclic AMP concentration; T2 serum + 100 µg/mL 5C9 IgG [7]: 1.1 pmol/mL
Cyclic AMP concentration; T3 serum + 100 µg/mL 5C9 IgG [7]: 1.4 pmol/mL
% Inhibition of M22 IgG (3 ng/mL) stimulation; 0.001 µg/ml 5C9 IgG [8]: 0%
% Inhibition of M22 IgG (3 ng/mL) stimulation; 0.01 µg/ml 5C9 IgG [8]: 0%
% Inhibition of M22 IgG (3 ng/mL) stimulation; 0.1 µg/ml 5C9 IgG [8]: 91.2%
% Inhibition of M22 IgG (3 ng/mL) stimulation; 0.5 µg/ml 5C9 IgG [8]: 97%
% Inhibition of M22 IgG (3 ng/mL) stimulation; 1 µg/ml 5C9 IgG [8]: 97.6%
% Inhibition of M22 IgG (3 ng/mL) stimulation; 5 µg/ml 5C9 IgG [8]: 99.4%
% Inhibition of M22 IgG (3 ng/mL) stimulation; 10 µg/ml 5C9 IgG [8]: 99.1%
% Inhibition of M22 IgG (3 ng/mL) stimulation; 50 µg/ml 5C9 IgG [8]: 99.1%
% Inhibition of M22 IgG (3 ng/mL) stimulation; 100 µg/ml 5C9 IgG [8]: 98.8%
Cyclic AMP concentration; 3 ng/mL M22 IgG + 0.001 µg/ml 5C9 IgG [8]: 39.3 pmol/mL
Cyclic AMP concentration; 3 ng/mL M22 IgG + 0.01 µg/ml 5C9 IgG [8]: 42.3 pmol/mL
Cyclic AMP concentration; 3 ng/mL M22 IgG + 0.1 µg/ml 5C9 IgG [8]: 2.9 pmol/mL
Cyclic AMP concentration; 3 ng/mL M22 IgG + 0.5 µg/ml 5C9 IgG [8]: 1 pmol/mL
Cyclic AMP concentration; 3 ng/mL M22 IgG + 1 µg/ml 5C9 IgG [8]: 0.8 pmol/mL
Cyclic AMP concentration; 3 ng/mL M22 IgG + 5 µg/ml 5C9 IgG [8]: 0.2 pmol/mL
Cyclic AMP concentration; 3 ng/mL M22 IgG + 10 µg/ml 5C9 IgG [8]: 0.3 pmol/mL
Cyclic AMP concentration; 3 ng/mL M22 IgG + 50 µg/ml 5C9 IgG [8]: 0.3 pmol/mL
Cyclic AMP concentration; 3 ng/mL M22 IgG + 100 µg/ml 5C9 IgG [8]: 0.4 pmol/mL
Cyclic AMP concentration; 5C9 IgG 100 µg/mL alone [8]: 0.5 pmol/mL
% Inhibition (constitutive activity); 0.1 µg/mL 5C9 IgG [9]: 0%
% Inhibition (constitutive activity); 0.2 µg/mL 5C9 IgG [9]: 0%
% Inhibition (constitutive activity); 1 µg/mL 5C9 IgG [9]: 45.9%
% Inhibition (constitutive activity); 2 µg/mL 5C9 IgG [9]: 45.3%
% Inhibition; 5C9 IgG 0.01 µg/mL + T11 [9]: 4.3%
% Inhibition; 5C9 IgG 0.1 µg/mL + T11 [9]: 19.8%
% Inhibition; 5C9 IgG 1 µg/mL + T11 [9]: 23%
% Inhibition; 5C9 IgG 10 µg/mL + T11 [9]: 13.9%
% Inhibition; 5C9 IgG 100 µg/mL + T11 [9]: 11.1%
% Inhibition; pTSH 3 ng/mL + 0.001 µg/mL 5C9 [9]: 0.2%
% Inhibition; pTSH 3 ng/mL + 0.01 µg/mL 5C9 [9]: 0%
% Inhibition; pTSH 3 ng/mL + 0.1 µg/mL 5C9 [9]: 78.7%
% Inhibition; pTSH 3 ng/mL + 1 µg/mL 5C9 [9]: 93.5%
% Inhibition; pTSH 3 ng/mL + 10 µg/mL 5C9 [9]: 98%
B1: 5C9 IgG (antibody, from another filing, V domains shown)
VH: EVQLVESGGGLIQPGGSLRLSCAASGFTVSSNYMSWVRQAPGKGLEWVSVTYSGGSTSYADSVKGRFTISRDNSKNTLYLQMNSLRAEDTAVYYCARGGRYCSSISCYARSGCDYWGQGTLVTVSS
VL: AIQMTQSPSSLSASVGDRVTITCRASQSISNYLNWYQQKPGKAPKLLIYAASSLQSGVPSRFSGSGSGTDFTLTISSLQPEDFATYYCQQSYSSPSTTFGQGTKLEIK
